# In patent publication US20240182596A1 (TUBULIS, published 2024):
# T1: HEK293 rat-NaPi2B-mCherry (Rattus norvegicus, UniProt Q9JJ09)
# T1 construct: full-length mCherry fusion stably expressed on HEK293 cells; also called rat full-length NaPi2b-mCherry on HEK293 cells
# T1 sequence (target on cells, looked up): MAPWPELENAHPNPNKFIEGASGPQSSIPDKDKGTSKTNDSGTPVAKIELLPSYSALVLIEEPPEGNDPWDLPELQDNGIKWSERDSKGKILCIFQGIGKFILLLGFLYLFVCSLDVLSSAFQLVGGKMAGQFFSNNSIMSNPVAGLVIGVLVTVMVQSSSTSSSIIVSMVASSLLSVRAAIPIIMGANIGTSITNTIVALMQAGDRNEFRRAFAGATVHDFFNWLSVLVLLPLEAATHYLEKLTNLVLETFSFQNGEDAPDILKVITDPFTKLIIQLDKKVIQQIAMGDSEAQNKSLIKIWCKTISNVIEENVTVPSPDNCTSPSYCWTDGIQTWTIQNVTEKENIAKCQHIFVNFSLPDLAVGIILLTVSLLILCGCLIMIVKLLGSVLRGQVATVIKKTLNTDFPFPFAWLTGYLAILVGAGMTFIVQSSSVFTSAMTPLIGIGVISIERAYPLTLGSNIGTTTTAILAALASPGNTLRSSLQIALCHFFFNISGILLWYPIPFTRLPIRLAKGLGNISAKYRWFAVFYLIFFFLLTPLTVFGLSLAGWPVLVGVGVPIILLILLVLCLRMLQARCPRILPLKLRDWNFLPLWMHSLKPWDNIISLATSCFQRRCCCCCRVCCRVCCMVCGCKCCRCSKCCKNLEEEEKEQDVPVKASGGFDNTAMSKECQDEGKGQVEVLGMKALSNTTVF
# T2: human NaPi2b on NaPi2b-positive cell lines OVCAR-3 and HCC-78 (human, UniProt O95436 1-690)
# T2 construct: Endogenous protein
# T2 sequence: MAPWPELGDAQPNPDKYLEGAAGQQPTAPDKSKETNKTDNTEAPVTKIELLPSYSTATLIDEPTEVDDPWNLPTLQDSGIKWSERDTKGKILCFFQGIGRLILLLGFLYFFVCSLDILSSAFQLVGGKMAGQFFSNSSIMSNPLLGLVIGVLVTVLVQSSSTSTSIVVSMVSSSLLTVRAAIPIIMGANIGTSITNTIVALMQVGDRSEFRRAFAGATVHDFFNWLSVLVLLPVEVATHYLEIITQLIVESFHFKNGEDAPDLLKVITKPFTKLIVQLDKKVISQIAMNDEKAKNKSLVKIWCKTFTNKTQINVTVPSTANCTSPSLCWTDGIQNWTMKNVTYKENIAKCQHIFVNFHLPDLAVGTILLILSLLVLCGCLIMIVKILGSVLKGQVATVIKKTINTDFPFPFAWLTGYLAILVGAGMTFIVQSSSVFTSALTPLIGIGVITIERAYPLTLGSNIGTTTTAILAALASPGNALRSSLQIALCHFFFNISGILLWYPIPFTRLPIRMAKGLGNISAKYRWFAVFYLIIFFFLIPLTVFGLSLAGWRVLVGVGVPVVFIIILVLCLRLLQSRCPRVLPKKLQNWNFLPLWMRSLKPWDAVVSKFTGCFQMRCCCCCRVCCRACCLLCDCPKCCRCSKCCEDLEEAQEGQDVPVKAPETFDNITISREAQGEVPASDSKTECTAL
# T3: human Napi2b-mCherry on HEK293 cells (human, UniProt O95436 1-690)
# T3 construct: also called Napi2b (SLC34A2); HEK293 cells overexpressing Napi2b
# T3 sequence: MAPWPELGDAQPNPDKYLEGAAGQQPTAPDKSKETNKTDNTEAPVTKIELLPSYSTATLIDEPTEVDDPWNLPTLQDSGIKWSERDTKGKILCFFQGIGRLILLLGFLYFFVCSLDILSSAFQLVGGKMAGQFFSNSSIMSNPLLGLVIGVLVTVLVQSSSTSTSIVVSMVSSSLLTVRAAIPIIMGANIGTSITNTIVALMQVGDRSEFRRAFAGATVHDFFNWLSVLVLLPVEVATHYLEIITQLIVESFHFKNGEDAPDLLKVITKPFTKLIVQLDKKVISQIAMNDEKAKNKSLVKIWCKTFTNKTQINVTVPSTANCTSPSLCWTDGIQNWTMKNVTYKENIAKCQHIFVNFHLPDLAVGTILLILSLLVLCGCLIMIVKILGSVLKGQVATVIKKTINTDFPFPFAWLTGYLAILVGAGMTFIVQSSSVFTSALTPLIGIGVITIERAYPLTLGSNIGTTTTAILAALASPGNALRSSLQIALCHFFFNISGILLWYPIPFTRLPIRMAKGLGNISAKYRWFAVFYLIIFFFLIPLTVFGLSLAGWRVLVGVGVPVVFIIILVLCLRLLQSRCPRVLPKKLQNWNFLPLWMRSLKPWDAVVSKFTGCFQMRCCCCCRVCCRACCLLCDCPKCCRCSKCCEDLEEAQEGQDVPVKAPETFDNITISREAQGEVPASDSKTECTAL
# B1: AV25 mAb, LALA-silenced (AV25 HC-LALA) (antibody, human IgG1, kappa, L234A L235A)
# heavy: not shown
# light: DIQMTQSPSSLSASVGDRVTITCSASQDIGNFLNWYQQKPGKTVKVLIYYASSLYSGVPSRFSGSGSGTDYTLTISSLQPEDFATYYCQQYSKLPLTFGQGTKLELKRTVAAPSVFIFPPSDEQLKSGTASVVCLLNNFYPREAKVQWKVDNALQSGNSQESVTEQDSKDSTYSLSSTLTLSKADYEKHKVYACEVTHQGLSSPVTKSFNRGEC
# notes: also called unmodified AV25 mAb
# Key:
# [1] = target: T1, HEK293 rat-NaPi2B-mCherry; test: flow cytometry on HEK293 cells stably expressing rat full-length NaPi2b-mCherry, Alexa-dye anti-human IgG H+L secondary antibody, MFI ratio, one-site specific binding fit; the Kd table prints no unit, the concentration axis is in nM
# [2] = target: T2, human NaPi2b on NaPi2b-positive cell …; test: flow cytometry on OVCAR-3 cells, one-site fit
# [3] = target: T3, human Napi2b-mCherry on HEK293 cells; test: flow cytometry on HEK293 cells expressing human Napi2b-mCherry (panel Napi2b-HEK293), Alexa-dye anti-human IgG H+L secondary antibody, MFI ratio to the non-specific binding control
# [4] = target: T3, human Napi2b-mCherry on HEK293 cells; test: flow cytometry on HEK293 cells stably expressing human full-length NaPi2b-mCherry, Alexa-dye anti-human IgG H+L secondary antibody, MFI ratio, one-site specific binding fit; the Kd table prints no unit, the concentration axis is in nM; second experiment on human cells, run beside the rat cells of FIG. 3D
# [5] = target: T4, recombinant human FcγRI (FcγR-SmBiT, Lumit assay) (human, UniProt P12314 16-292); test: Lumit FcγRI Binding Immunoassay (Promega), competition with Tracer-LgBiT for FcγRI-SmBiT, falling luminescence means binding, n=1
# T4 construct: Kit reagent (Promega); also called FcγRI (CD64); not shown: SmBiT label of the kit
# T4 sequence (P12314 16-292): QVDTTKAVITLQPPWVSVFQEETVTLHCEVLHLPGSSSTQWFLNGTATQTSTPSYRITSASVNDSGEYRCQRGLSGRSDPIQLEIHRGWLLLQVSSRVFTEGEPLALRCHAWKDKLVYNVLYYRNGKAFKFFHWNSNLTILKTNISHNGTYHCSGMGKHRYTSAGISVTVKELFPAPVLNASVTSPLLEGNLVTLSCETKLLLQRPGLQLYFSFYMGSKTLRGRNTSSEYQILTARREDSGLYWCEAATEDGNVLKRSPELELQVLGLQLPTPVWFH
binder,measurement,setting,value
B1,Kd,[1],0.539 nM
same,Kd,[2],0.44 µg/mL
same,EC50 (read off the curve),[3],~0.7 nM
same,Kd,[4],0.609 nM
same,binding result,[5],binds
